Laboratory results from paper PMC7293033.
Changes are numbered by the printed parent chain. In names and notes the source's numbering stands. One block for each binder: values may come before it.

Key:
Assay in all cases: SPR
[1] = biological target: His-FGF2, LMW FGF2 (residues 135-288, C211S/C229S), P09038; settings: chain shown with the change; concentration series 0.031, 0.063, 0.13, 0.25, 0.50, 1.0, 2.0, 4.0, 8.0, 16 µM
[2] = biological target: T1, His-FGF2 Mut (C211S/C229S/R262A/T263A/K271A), P09038; settings: chain shown with the change; concentration series 0.25, 0.50, 1.0, 2.0, 4.0, 8.0, 16, 32, 64 µM
T1 chain: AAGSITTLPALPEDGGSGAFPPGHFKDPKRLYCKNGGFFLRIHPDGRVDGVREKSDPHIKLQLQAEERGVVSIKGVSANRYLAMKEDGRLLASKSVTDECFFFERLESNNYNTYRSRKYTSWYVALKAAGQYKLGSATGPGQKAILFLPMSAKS

[3] = biological target: T2, His-API5 (apoptosis inhibitor 5, residues 1-504, isoform 2), wild type; settings: chain shown with the change; concentration series 0.13, 0.25, 0.50, 1.0, 2.0, 4.0, 8.0, 16 µM
T2 chain: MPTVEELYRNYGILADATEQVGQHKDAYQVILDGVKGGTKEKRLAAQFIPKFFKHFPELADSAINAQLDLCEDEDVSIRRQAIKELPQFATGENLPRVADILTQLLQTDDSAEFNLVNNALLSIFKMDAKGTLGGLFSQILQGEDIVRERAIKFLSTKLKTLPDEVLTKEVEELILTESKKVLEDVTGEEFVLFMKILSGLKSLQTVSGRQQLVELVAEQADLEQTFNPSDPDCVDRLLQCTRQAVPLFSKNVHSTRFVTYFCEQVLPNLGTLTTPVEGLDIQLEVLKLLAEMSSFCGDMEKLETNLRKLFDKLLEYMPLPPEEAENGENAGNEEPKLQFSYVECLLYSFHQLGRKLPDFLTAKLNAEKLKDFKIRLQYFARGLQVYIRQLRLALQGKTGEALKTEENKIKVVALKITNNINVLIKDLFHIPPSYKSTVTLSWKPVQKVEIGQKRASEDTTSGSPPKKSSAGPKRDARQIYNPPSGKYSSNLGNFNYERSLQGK

koff [1]: 0.0094 s⁻¹
B1: His-API5 (apoptosis inhibitor 5, residues 1-504, isoform 2), wild type E184A; D185A; E190A (protein)
chain: T2 chain with E184A, D185A, E190A

koff [2]: 0.00328 s⁻¹
other: t1/2 (half-life of complex) [2]: 3.52 min
B2: m1; m2 API5: E184A; D185A; E190A; FGF2: R262A; T263A; K271A (protein)
chain: T2 chain with E184A, D185A, E190A

koff [3]: 0.00251 s⁻¹
B3: His-FGF2, LMW FGF2 (residues 135-288, C211S/C229S), P09038 R262A; T263A; K271A (protein)
chain: T1 chain
